Test results as given in patent US7919577B2, “Adrenocorticotropic hormone analogs and related methods” (Colorado Seminary, priority 2004, dated 2011).
No end group written: not given here.

Biological target: T1, adrenal ACTH receptors such as MC-2R (explanted adrenal membrane) (Mus musculus, UniProt Q64326+Q9D159)
T1 construct: the adrenal halves were macerated or otherwise dissociated using Dounce Homogenizer to form a membrane fraction; from tissue; host or cells: mouse adrenal glands (explanted, homogenised to a membrane fraction)
T1 sequence (Q64326 whole entry): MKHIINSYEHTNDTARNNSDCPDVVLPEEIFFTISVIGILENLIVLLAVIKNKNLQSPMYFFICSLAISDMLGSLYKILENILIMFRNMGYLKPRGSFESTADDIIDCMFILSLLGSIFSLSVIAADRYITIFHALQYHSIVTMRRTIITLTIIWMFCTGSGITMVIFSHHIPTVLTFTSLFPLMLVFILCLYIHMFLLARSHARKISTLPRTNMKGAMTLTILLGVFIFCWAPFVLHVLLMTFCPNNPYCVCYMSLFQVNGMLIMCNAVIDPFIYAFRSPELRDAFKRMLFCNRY
T1 sequence (Q9D159 whole entry): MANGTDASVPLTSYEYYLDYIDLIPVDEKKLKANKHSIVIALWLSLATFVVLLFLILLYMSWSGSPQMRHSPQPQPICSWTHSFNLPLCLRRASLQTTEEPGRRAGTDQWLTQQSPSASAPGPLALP
Test: in vitro Serum-free Adrenal Competitive Binding Assay (Example 3)
Conditions: cold peptide at 10 nM, 100 nM, 1000 nM; CPM; FIG. 3
Excerpt: ACTH analog compounds that bind to adrenal membrane with a greater affinity than endogenous unmodified ACTH, and are able to displace unmodified ACTH can be identified using an in vitro Serum-free Adrenal Competitive Binding Assay (Example 3). […] A higher CPM level indicates the presence of greater amounts of the radiolabelled compound. […] Column 220 indicates the level of radio-labeled unmodified mACTH(1-24) detected after combining the explanted adrenal membrane with only the radio-labeled mACTH(1-24) for 2 hours (no competitive binding). Columns 230, 240, and 250 show the results of competitive binding assays for binding of non-radio-labeled (“cold”) mACTH(1-24) to displace the radio-labeled mACTH(1-24) from the explanted adrenal membrane (measured in column 220) by competitive binding to receptors such as MC-2R on the adrenal membrane. […]
ACTH analogs with the ability to bind adrenal receptors with a greater affinity than compounds with known adrenal binding activity (preferably ACTH) can also be identified by performing an in vitro Adrenal Competitive Binding Assay, whereby measurement of the reduction in the amount of the radiolabelled adrenal-binding compound (e.g., ACTH) is measured at various concentrations of non-radio-labeled ACTH analog test compound in a medium containing explanted adrenal membrane. […]

Substance: N-Ser^1-Tyr-Ser-Met-Glu^5-His-Phe-Arg-Trp-Gly^10-Lys-Pro-Val-Gly-Lys^15-Arg-Ala-Ala-Trp-Val^20-Lys-Val-Tyr-Pro-Ac (SYSMEHFRWGKPVGKRAAWVKVYP; not fully specified; printed as N-Ser1-Tyr-Ser-Met-Glu5-His-Phe-Arg-Trp-Gly10-Lys-Pro-Val-Gly-Lys15-Arg-Ala-Ala-Trp-Val20-Lys-Val-Tyr-Pro-Ac) [AT814]
- displacement of radio-labeled mACTH(1-24) from explanted adrenal membrane: displacement of the radio-labeled mACTH(1-24)
